Like-named read-outs stand apart in the source and are kept apart here.
Tests used:
[1] = type: physicochemical; conditions: for Radiochemical purity in the final formulation at room temperature: final formulation vial, HPLC C8, gamma detector, n = 3
Description: The radiochemical purity (RP) was determined using HPLC analysis, a reverse phase column Agilent ZORBAX Eclipse Plus C8 4.6x150mm 5 μm column, flux 2.0 mL/min and the following solvent gradient: (A) TFA 0.1% (v/v) in water, (B) TFA 0.1% (v/v) in acetonitrile; 0–7 min 0 %B, 7–10 min (0–50) %B with GAMMA detector. The stability in the labeling milieu, after purification and preconditioning [^18F]-AlF-PSMA, was performed after incubation the final formulation vial at room temperature for 4 h. In both cases, samples were analyzed by HPLC, using previously described chromatographic conditions.

[2] = test system: LNCaP human prostate cancer cell line xenograft; assay: In vivo PET/CT imaging of LNCaP xenograft mice, tumour/muscle ratio; parameters: species or system Nude N: NIH (S) – Foxn 1nu mice; conditions: PET, 60 min after iv injection (33–46 MBq), LNCaP xenograft nude mice, n = 3
Description: Nude N: NIH (S) – Foxn 1nu mice […] were used as prostate cancer tumour model, for in vivo studies. Animals were housed in racks with filtered air under controlled conditions temperature (24 ± 1) °C and relative humidity (40–60)%). They were maintained on a 14:10 h light/dark cycles in the CUDIM animal facility with food and water ad libitum.
For the development of a xenographic human prostate cancer model, LNCaP human prostate cancer cell line (ATCC ATCC® CRL-1740™).
A xenographic human prostate cancer model was used as the prostate cancer tumour model. 5 million LNCaP cells, suspended in 200 μL of culture media (RPMI) with matrix gel, were injected subcutaneously into the left upper leg of male nude mice (2 months old). Appropriate tumour volumes (100–350 mm^3) were achieved between four to six weeks post inoculation. Percutaneous testorerone was daily applied to each mice. Tumours were measured once a week with a microcalliper in two dimensions, and tumour volumes were calculated as (smaller diameter)^2 x larger diameter x π/6.
PET/CT scans were performed using a small animal tri-modality PET/SPECT/CT scanner (TriumphTM, TriFoil, Inc., US) based on Quad-APD detector modules coupled with LYSO/LGSO scintillators (spatial resolution: 1.0 mm; axial field of view (FOV): 3.75 cm). […]
Image processing and semi-quantitative analysis was done using PMOD software, v.3.4. […]

[3] = cited from earlier work
From the text: However, the work of S. Lütje, et al. presented in the EANM 2017, obtain a product which is not stable in PBS, TFA or ethanol. In addition, the product presented in vivo a bone uptake associated with instability of the compound. (Lütje et al. [2017]). Nevertheless E. Al-Momani et al. (Al-Momami et al. [2017]) reported that the stability of the radiopharmaceutical was highly dependent of the formulation conditions, being stable in saline solution with 1% of ethanol or acetate buffer pH 6, and not stable in ethanol 10%/PBS. || Our results with the automated synthesis were in agreement with those previously reported by N. Malik, et by a manual process. In this paper the optimal pH of labeling turned out to be 5 and the stability was greater than 90% at 4 h post production (Malik et al. [2015]). || Recently Kersemans et al. ([n.d.]) have reported an automated synthesis of this radiopharmaceutical in a modified SynthraFCHOL synthesis module (Synthra GmbH, Hamburg, Germany), with a similar e.o.s yield. 100 to 200 μg of the peptide were necessary to achieve a labelling yield higher than 70%. The radiopharmaceutical was stable in buffer phosphate 5 mM pH 7 at least during 150 min.

[4] = cited from earlier work; remark: listed apart in the source
From the text: However, the work of S. Lütje, et al. presented in the EANM 2017, obtain a product which is not stable in PBS, TFA or ethanol. In addition, the product presented in vivo a bone uptake associated with instability of the compound. (Lütje et al. [2017]). Nevertheless E. Al-Momani et al. (Al-Momami et al. [2017]) reported that the stability of the radiopharmaceutical was highly dependent of the formulation conditions, being stable in saline solution with 1% of ethanol or acetate buffer pH 6, and not stable in ethanol 10%/PBS.

Substance: [^18F]AlF-[GLU-UREA-LYS(AHX)-HBED-CC] [[^18F]AlF-PSMA-11]
- Time of stability in the final formulation vial [1]: 4 h
- Radiochemical purity in the final formulation vial ([1]; during 4 h post production, room temperature, HPLC): greater than 90%
- Radiochemical purity in the final formulation at room temperature ([1]; room temperature, 1 h post synthesis): 94.6 ± 1.8%
- Radiochemical purity in the final formulation at room temperature ([1]; room temperature, 2 h post synthesis): 92.8 ± 2.5%
- Radiochemical purity in the final formulation at room temperature ([1]; room temperature, 3 h post synthesis): 93.7 ± 2.0%
- Radiochemical purity in the final formulation at room temperature ([1]; room temperature, 4 h post synthesis): 94.2 ± 2.8%
- mean T/M ratio (T = Tumor, M = muscle) [2]: 2.2 ± 0.9
- Stability in PBS, TFA or ethanol [3]: not stable
- Stability in ethanol 10%/PBS [3]: not stable
- Stability at 4 h post production ([3]; pH 5): greater than 90%
- Stability in saline solution with 1% of ethanol or acetate buffer pH 6 ([3]; pH 6): stable
- Time of stability in buffer phosphate 5 mM pH 7 ([3]; pH 7): ≥ 150 min
- In vivo bone uptake associated with instability of the compound [4]: bone uptake

Reference: PMC5829129, “Synthesis of an Al^18F radiofluorinated GLU-UREA-LYS(AHX)-HBED-CC PSMA ligand in an automated synthesis platform” (EJNMMI Radiopharmacy and Chemistry, 2018)
